# Experimental data published in patent publication US20150086553A1 (SAMSUNG ELECTRONICS, published 2015).
# T1: Annexin A1 on cancer cells (SNU1, MDA-MB-231) (UniProt P04083 2-346, limits assumed)
# T1 construct: whole, on cells; Endogenous protein of cancer cell lines said to overexpress Annexin A1; Assay buffer was HBSS(+) with Ca2+ and Mg2+; also called Annexin A1 on cancer cell surfaces; extracellular portion of Annexin A1 in cancer cells
# T1 sequence (looked up): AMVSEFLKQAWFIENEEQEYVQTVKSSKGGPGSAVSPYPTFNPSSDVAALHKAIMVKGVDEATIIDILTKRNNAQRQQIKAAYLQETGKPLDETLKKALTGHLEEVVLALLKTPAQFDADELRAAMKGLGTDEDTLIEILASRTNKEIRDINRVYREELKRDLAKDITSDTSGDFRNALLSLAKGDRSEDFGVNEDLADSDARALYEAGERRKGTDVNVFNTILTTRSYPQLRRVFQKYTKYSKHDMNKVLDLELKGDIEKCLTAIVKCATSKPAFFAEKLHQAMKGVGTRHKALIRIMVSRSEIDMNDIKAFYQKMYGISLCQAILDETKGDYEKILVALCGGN
# T2: full-length Annexin A1 protein (346 amino acids; Accession No. NP-000691.1) (human, UniProt P04083 1-346)
# T2 construct: Biotinylated for biopanning; coated at 4 ug per well for ELISA
# T2 sequence: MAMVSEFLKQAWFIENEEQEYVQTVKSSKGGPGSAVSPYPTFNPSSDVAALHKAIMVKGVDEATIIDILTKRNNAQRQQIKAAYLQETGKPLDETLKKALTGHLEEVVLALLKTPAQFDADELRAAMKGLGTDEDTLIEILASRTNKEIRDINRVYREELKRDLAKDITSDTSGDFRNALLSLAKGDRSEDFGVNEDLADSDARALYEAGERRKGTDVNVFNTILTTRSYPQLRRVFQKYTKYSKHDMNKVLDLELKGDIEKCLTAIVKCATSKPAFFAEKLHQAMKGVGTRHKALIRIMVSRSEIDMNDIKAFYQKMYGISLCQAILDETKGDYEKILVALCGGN
# T3: Annexin A1 N-terminal peptide (30 amino acids, biotin conjugated) (biotin conjugated form (position not given))
# T3 construct: Synthetic peptide, captured on streptavidin-coated plates for ELISA; also called N-terminal region of Annexin A1; Annexin A1 N-terminus
# T3 peptide: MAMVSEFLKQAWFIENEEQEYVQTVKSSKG
# B1: scFv N314 (scFv)
# scFv: EVQLLESGGGLVQPGGSLRLSCAASGFTFGGYAMSWVRQAPGKGLEWVSGIYPGGGSTYYADSVKGRFTISRDNSKNTLYLQMNSLRAEDTAVYYCARRLTIFDYWGQGTLVTVSSGGGGSGGGGSGGGGSQSVLTQPPSASGTPGQRVTISCSGSSSNIGNNDVTWYQQLPGTAPKLLIYSDSHRPSGVPDRFSGSKSGTSASLAISGLRSEDEADYYCGTWDDSLSGYVFGGGTKLTVLG
# notes: also called clone G11
# B2: scFv N43 (scFv)
# scFv: EVQLLESGGGLVQPGGSLRLSCAASGFTFSDYSMGWVRQAPGRGLEWVSGIYPSGGNTYYADSVKGRFTISRDNSKNTLYLQMNSLRAEDTAVYYCAKRPSRFDYWGQGTLVAVSSGGGGSGGGGSGGGGSQSVLTQPPSASGTPGQRVTISCTGSSSNIGNNDVNWYQQLPGTAPKLLIYSNSHRPSGVPDRFSGSKSGTSASLAISGLRSEDEADYYCGTWDDSLNGYVFGGGTKLTVLG
# B3: scFv F4 (scFv)
# scFv: EVQLLESGGGLVQPGGSLRLSCAASGFTFSGYYMSWVRQAPGKGLEWVSSISPSGSSIYYADSVKGRFTISRDNSKNTLYLQMNSLRAEDTAVYYCAKGSPGFDYWGQGTLVTVSSGGGGSGGGGSGGGGSQSVLTQPPSASGAPGQRVTISCSGSSFNIGSNDVSWYQQLPGTAPKLLIYSDSHRPSGVPDRFSGSKSGTSASLAISGLQSEDEADYYCGSWDYSLSAYVFGGGTKLTVLG
# B4: scFv N32 (scFv)
# scFv: EVQLLESGGGLVQPGGSLRLSCAASGFTFSNYAMSWVRQAPGKGLEWVSGIYPNSGSNTYYADSVKGRFTISRDNSKNTLYLQMNSLRAEDTAVYYCARRPTLFDYWGQGTLVTVGSGGGGSGGGGSGGGGSQSVLTQPPSASGTPGQRVTISCTGSSSNIGSNSVNWYQQLPGTAPKLLIYSDSHRPSGVPDRFSGSKSGTSASLAISGLQSEDEADYYCATWDDSLNGYVFGGGTKLTVLG
# notes: also called clone C9
# B5: scFv F5 (scFv)
# scFv: EVQLLESGGGLVQPGGSLRLSCAASGFTFSDYAMSWVRQAPGKGLEWVSGISYGGGNTYYADSVKGRFTISRDNSKNTLYLQMNSLRAEDTAVYYCAKRLGSFDYWGQGTLVTVSSGGGGSGGGGSGGGGSQSVLTQPPSASGTPGRRVTISCTGTSSNIGSNYVSWYRQLPGTAPKLLIYAGNHRPSGVPDRFSGSKSGTSASLAISGLRSEDEADYYCGSWDSSLSAYVFGGGTKLTVLG
# notes: also called clone B5
# B6: scFv F6 (scFv)
# scFv: EVQLLESGGGLVQPGGSLRLSCAASGFTFSNYAMSWVRQAPGKGLEWVSSISSNSGNKYYADSVKGRFTISRDNSKNTLYLQMNSLRAEDTAVYYCAKATLGMDHIHAYSAYGMDVWGQGTLVTVSSGGGGSGGGGSGGGGSQSVLTQPPSASGTPGQRATISCTGSSSNIGSNSVSWYQQLPGTAPKLLIYANSNRPSGVPDRFSGSKSGTSASLAISGLRSEDEADYYCAAWDDSLNAYVFGGGTKLTVLG
# notes: also called clone C5
# B7: scFv F8 (scFv)
# scFv: EVQLLESGGGLVQPGGSLRLSCAASGFTFSSYSMSWVRQAPGKGLEWVSGISPGSGSIYYADSVKGRFTISRDNSKNTLYLQMNSLRAEDTAVYYCARRIHPFDYWGQGTLVAVSSGGGGSGGGGSGGGGSQSVLTQPPSASGTPGQRVTISCTGSSSNIGNNDVSWYQQLPGTAPKLLIYSDNQRPSGVPGRFSGSKSGTSASLAISGLRSEDEADYYCGAWDSSLNAYVFGGGTKLTVLG
# notes: also called clone G3
# B8: scFv F10 (scFv)
# scFv: EVQLLESGGGLVQPGGSLRLSCAASGFTFSDYSMSWVRQAPGKGLEWVSVISPDSSNTYYADSVKGRFTISRDNSKNTLYLQMNSLRAEDTAVYYCAKVTGTCGPRSCYYYDAMDVWGQGTLVTVSSGGGGSGGGGSGGGGSQSVLTQPPSASGTPGQRVTISCSGSSSNIGSNAVSWYQQLPGTAPKLLIYYNSHRPSGVPDRFSGPKSGTSASLAISGLRSEDEADYYCATWDSSLNGYVFGGGTKLTVLG
# B9: scFv N34 (scFv)
# scFv: EVQLLESGGGLVQPGGSLRLSCAASGFTFSNYAMSWVRQAPGKGLEWVSAIYPGGGSIYYADSVKGRFTISRDNSKNTLYLQMNSLRAEDTAVYYCARRLQIFDYWGQGTLVTVSSGGGGSGGGGSGGGGSQSVLTQPPSASGTPGQRVTISCTGSSSNIGSNNVTWYQQLPGTAPKLLIYSDSHRPSGVPDRFSGSKSGTSASLAISGLQSEDEADYYCGSWDYSLSAYVFGGGTKLTVLG
# notes: also called clone C11
# Biological target: T1, Annexin A1 on cancer cells (SNU1, …)
# Assay: cell-based ELISA on SNU1 and MDA-MB-231 cells, 250/125/25 ng scFv per well, anti-HA-HRP
# Experimental: The selected Annexin A1-binding scFv was analyzed for binding specificity by cell-based ELISA using the cancer cells SNU1 and MDA-MB-231 in which Annexin A1 is overexpressed.
# Briefly, after SNU1 (ATCC) and MDA-MB-231 (ATCC) cancer cells were maintained at 37° C. in RPMI-1640 and DMEM, respectively, under a supply of 5% CO₂, they were seeded at a density of 5×10⁵ cells into 96-well plates (NUNC). Purified proteins from the selected scFv (N32, N33, N43, N46, N48, N314, N36, F2, F4, F5, F6, F8, F10) were added in an amount of 250 ng, 125 ng, or 25 ng to each well, incubated at 4° C. for 90 min, and washed twice with HBSS (+) buffer (Gibco, 14025-092; HBSS containing Ca²⁺ and Mg²⁺; calcium chloride (CaCl₂) 12.6 mM, magnesium chloride 4.9 mM, and magnesium sulfate 4 mM). Thereafter, a 1/200 dilution of an anti-HA-HRP secondary antibody (Santa Cruz), configured to detect an HA tag conjugated to an scFv terminus, was added to in an amount of 50 ul to each well, and incubated for 1 hr. A color was developed for 10 min with the addition of 150 ul of the Super AquaBlue ELISA substrate solution (eBioScience) for the HRP of the secondary antibody. Absorbance was read at 405 nm to determine the binding of scFv to the Annexin A1 on cancer cells.
row,Binder,binding result
1,B1,binds
2,B2,binds
3,B3,binds
4,B4,binds
5,B5,binds
6,B6,binds
7,B7,binds
8,B8,binds

# Biological target: T2, full-length Annexin A1 protein (346 …)
# Assay: scFv selected by ELISA on plate-coated full-length Annexin A1, anti-HA-HRP detection
row,Binder,binding result
1,B3,binds
2,B5,binds
3,B6,binds
4,B7,binds
5,B8,binds

# Biological target: T3, Annexin A1 N-terminal peptide (30 amino …)
# Assay: scFv selected by ELISA on biotinylated N-terminal peptide
row,Binder,binding result
1,B9,binds

# Biological target: T3, Annexin A1 N-terminal peptide (30 amino …)
# Assay: scFv selected by ELISA on biotinylated N-terminal peptide on streptavidin plates, anti-HA-HRP detection
row,Binder,binding result
1,B1,binds
2,B2,binds
3,B4,binds
